Experimental data published in patent US20160229915A1 (Chugai, published 2016).

Assays:
[1] = molecular target: T1, mouse FcgRIV extracellular domain, C-terminal His tag (mouse, UniProt A0A0B4J1G0 21-203); assay: SPR (Biacore), antibody captured on chip, mFcgR extracellular domain as analyte
T1 construct: also called mFcgRIV; mFcγRIV
T1 sequence: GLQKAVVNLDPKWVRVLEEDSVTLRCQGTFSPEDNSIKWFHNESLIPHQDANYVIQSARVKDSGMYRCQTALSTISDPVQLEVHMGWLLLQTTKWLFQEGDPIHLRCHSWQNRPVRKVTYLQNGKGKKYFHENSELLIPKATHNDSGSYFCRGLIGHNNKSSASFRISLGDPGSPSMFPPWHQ
Protocol: (§1) The two types of bispecific antibodies (MRAH-mIgG1mP3/MRAL-mk1//H54-mIgG1mN3/L28-mk1 and MRAH-mIgG1mP4/MRAL-mk1//H54-mIgG1mN4/L28-mk1) prepared by mouse IgG-type Fab arm exchange were tested for their binding to mouse FcgR and mouse FcRn according to Reference Example 4-3. Also, MRAH-mIgG1/MRAL-mk1 was prepared according to Reference Example 1 and assayed as a control.

[2] = molecular target: T2, mouse FcgRI extracellular domain, C-terminal His tag (mouse, UniProt P26151 25-297); assay: as above
T2 construct: extracellular domain; also called mFcgRI; mFcγRI; not shown: C-terminal His tag
T2 sequence (looked up): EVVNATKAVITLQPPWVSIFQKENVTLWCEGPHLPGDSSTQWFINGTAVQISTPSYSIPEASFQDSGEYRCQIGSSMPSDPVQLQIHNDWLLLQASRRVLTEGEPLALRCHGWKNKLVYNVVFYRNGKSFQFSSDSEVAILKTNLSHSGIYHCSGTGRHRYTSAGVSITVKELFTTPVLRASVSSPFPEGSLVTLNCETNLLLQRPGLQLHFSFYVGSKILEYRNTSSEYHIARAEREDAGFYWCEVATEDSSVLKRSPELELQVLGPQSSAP
Protocol: as §1

[3] = molecular target: T3, mouse FcRn (mouse, UniProt Q61559 22-297); assay: SPR (Biacore), antibody captured by protein L, mouse FcRn as analyte, pH 6.0, 25 C
T3 construct: also called mFcRn
Protocol: (§2) Next, the binding to mFcRn was evaluated according to Reference Example 4-4.
(§3) Kinetic analysis was conducted on mouse FcRn and each antibody using Biacore T100, Biacore T200, Biacore A100, and Biacore 4000 (GE Healthcare Japan Corp.). An appropriate amount of protein L (ACTIGEN) was immobilized on Sensor Chip CM4 (GE Healthcare Japan Corp.) by the amine coupling method. The antibody of interest was captured onto the chip. Next, a diluted FcRn solution or a running buffer (as a control solution) was injected thereto so that the mouse FcRn was allowed to interact with the antibody captured on the sensor chip. The running buffer used was 50 mmol/L sodium phosphate, 150 mmol/L NaCl, and 0.05% (w/v) Tween 20 (pH 6.0), and each buffer was also used for diluting FcRn. 10 mmol/L glycine-HCl (pH 1.5) was used to regenerate the chip. The assay was conducted at 25° C. for all samples. From the sensorgram obtained by the assay, an association rate constant ka (1/Ms) and a dissociation rate constant […] (1/s) were calculated as kinetic parameters. The KD (M) of each antibody for mouse FcRn was calculated on the basis of the parameters. Biacore Evaluation Software (GE Healthcare Japan Corp.) was used in the calculation of each parameter.

[4] = molecular target: T4, mouse FcgRII extracellular domain, C-terminal His tag (mouse, UniProt P08101 30-210); assay: SPR (Biacore); binding activity relative to naturally occurring mIgG1
T4 construct: extracellular domain; also called mFcgRII; mFcγRII; not shown: C-terminal His tag
T4 sequence (looked up): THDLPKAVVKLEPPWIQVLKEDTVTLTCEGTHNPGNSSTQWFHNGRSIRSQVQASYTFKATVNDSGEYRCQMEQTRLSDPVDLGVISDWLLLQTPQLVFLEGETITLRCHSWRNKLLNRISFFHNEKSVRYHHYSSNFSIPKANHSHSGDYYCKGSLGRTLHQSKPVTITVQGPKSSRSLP
Protocol: as §1

[5] = molecular target: T5, mouse FcgRIII extracellular domain, C-terminal His tag (mouse, UniProt P08508 31-215); assay: as above
T5 construct: extracellular domain; also called mFcgRIII; mFcγRIII; not shown: C-terminal His tag
T5 sequence (looked up): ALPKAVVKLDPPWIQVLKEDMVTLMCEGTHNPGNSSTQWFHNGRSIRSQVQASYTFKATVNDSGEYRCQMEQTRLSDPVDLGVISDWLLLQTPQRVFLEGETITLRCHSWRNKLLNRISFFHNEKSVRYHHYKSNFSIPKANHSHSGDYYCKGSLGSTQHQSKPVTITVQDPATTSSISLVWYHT
Protocol: as §1

[6] = molecular target: T4, mouse FcgRII extracellular domain, …; assay: SPR (Biacore), antibody captured on chip, His-tagged mFcgR extracellular domain as analyte, 25 C
Protocol: as §1

[7] = molecular target: T5, mouse FcgRIII extracellular domain, …; assay: as above
Protocol: as §1

[8] = molecular target: T3, mouse FcRn; assay: SPR (Biacore); relative to mIgG1
Protocol: as §2, §3

[9] = molecular target: T4, mouse FcgRII extracellular domain, …; assay: SPR (Biacore); relative to mIgG1 (the reference itself)
Protocol: as §1

[10] = molecular target: T5, mouse FcgRIII extracellular domain, …; assay: as above
Protocol: as §1

[11] = molecular target: T3, mouse FcRn; assay: as above
Protocol: as §2, §3

T3 sequence (Q61559 22-297): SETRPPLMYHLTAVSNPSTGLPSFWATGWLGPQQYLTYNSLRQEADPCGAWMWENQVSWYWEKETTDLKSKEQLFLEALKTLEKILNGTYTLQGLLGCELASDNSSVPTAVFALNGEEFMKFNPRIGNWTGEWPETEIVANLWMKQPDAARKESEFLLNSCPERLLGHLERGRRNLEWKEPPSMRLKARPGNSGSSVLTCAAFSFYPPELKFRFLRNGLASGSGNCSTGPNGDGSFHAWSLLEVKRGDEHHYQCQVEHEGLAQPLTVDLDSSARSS

B1: MRAH-mIgG1mP3/MRAL-mk1//H54-mIgG1mN3/L28-mk1 (bispecific antibody)
heavy 1: QVQLQESGPGLVRPSQTLSLTCTVSGYSITSDHAWSWVRQPPGRGLEWIGYISYSGITTYNPSLKSRVTMLRDTSKNQFSLRLSSVTAADTAVYYCARSLARTTAMDYWGQGSLVTVSSAKTTPPSVYPLAPGSAAQTNSMVTLGCLVKGYFPEPVTVTWNSGSLSSGVHTFPAVLQSDLYTLSSSVTVPSSTWPSETVTCNVAHPASSTKVDKKIVPRDCGCKPCICTVPEVSSVFIFPPKPKDVLTITLTPKVTCVVVDISKDDPEVQFSWFVDDVEVHTAQTQPREEQFNSTFRSVSELPIMHQDWLNGKEFKCRVNSAAFPAPIEKTISKTKGRPKAPQVYTIPPPKEQMAKDKVSLTCMITDFFPEDITVEWQWNGQPAENYKNTQPIMKTDGSYFVYSKLNVQKSNWEAGNTFTCSVLHEGLHNHHTEKSLSHSPGK
light 1: DIQMTQSPSSLSASVGDRVTITCRASQDISSYLNWYQQKPGKAPKLLIYYTSRLHSGVPSRFSGSGSGTDFTFTISSLQPEDIATYYCQQGNTLPYTFGQGTKVEIKRADAAPTVSIFPPSSEQLTSGGASVVCFLNNFYPKDINVKWKIDGSERQNGVLNSWTDQDSKDSTYSMSSTLTLTKDEYERHNSYTCEATHKTSTSPIVKSFNRNEC
heavy 2: QVQLQESGPGLVKPSETLSLTCAVSGYSISDDQAWSWVRQPPGEGLEWIGYISYSGITNYNPSLKGRVTISRDTSKNQFSLKLSSVTAADTAAYYCARSLARTTAMDYWGEGTLVTVSSAKTTPPSVYPLAPGSAAQTNSMVTLGCLVKGYFPEPVTVTWNSGSLSSGVHTFPAVLQSDLYTLSSSVTVPSSTWPSETVTCNVAHPASSTKVDKKIVPRDCGCKPCICTVPEVSSVFIFPPKPKDVLTITLTPKVTCVVVDISKDDPEVQFSWFVDDVEVHTAQTQPREEQFNSTFRSVSELPIMHQDWLNGKEFKCRVNSAAFPAPIEKTISKTKGRPKAPQVYTIPPPKEQMAKDKVSLTCMITDFFPEDITVEWQWNGQPAENYKNTQPIMDTDGSYFVYSDLNVQKSNWEAGNTFTCSVLHEGLHNHHTEKSLSHSPGK
light 2: DIQMTQSPSSLSASVGDSVTITCQASQDISSYLNWYQQKPGKAPELLIYYGSELHSGVPSRFSGSGSGTDFTFTISSLEAEDAATYYCQQGNSLPYTFGQGTKVEIERADAAPTVSIFPPSSEQLTSGGASVVCFLNNFYPKDINVKWKIDGSERQNGVLNSWTDQDSKDSTYSMSSTLTLTKDEYERHNSYTCEATHKTSTSPIVKSFNRNEC
notes: Product of mouse IgG1-type Fab arm exchange (D399K on one H chain, K409D on the other); formation efficiency 89.2%, so the preparation may hold some homo variant; also called mIgG1mP3/mN3; mP3/mN3
binding result [1]: no binding | binding result [2]: no binding | Kd [3]: 2100 nM | KD fold mFcgRII [4]: 1.2 fold | KD fold mFcgRIII [5]: 1.2 fold | Kd [6]: 670 nM | Kd [7]: 670 nM | fold KD [8]: 1.2 fold

B2: MRAH-mIgG1mP4/MRAL-mk1//H54-mIgG1mN4/L28-mk1 (bispecific antibody)
heavy 1: QVQLQESGPGLVRPSQTLSLTCTVSGYSITSDHAWSWVRQPPGRGLEWIGYISYSGITTYNPSLKSRVTMLRDTSKNQFSLRLSSVTAADTAVYYCARSLARTTAMDYWGQGSLVTVSSAKTTPPSVYPLAPGSAAQTNSMVTLGCLVKGYFPEPVTVTWNSGSLSSGVHTFPAVLQSDLYTLSSSVTVPSSTWPSETVTCNVAHPASSTKVDKKIVPRDCGCKPCICTVPEVSSVFIFPPKPKDVLTITLTPKVTCVVVDISKDDPEVQFSWFVDDVEVHTAQTQPREEQFNSTFRSVSELPIMHQDWLNGKEFKCRVNSAAFPAPIEKTISKTKGRPKAPQVYTIPPPKEQMAKDKVSLTCMITDFFPEDITVEWQWNGQPAENYKNTQPIMRTDGSYFVYSKLNVQKSNWEAGNTFTCSVLHEGLHNHHTEKSLSHSPGK
light 1: DIQMTQSPSSLSASVGDRVTITCRASQDISSYLNWYQQKPGKAPKLLIYYTSRLHSGVPSRFSGSGSGTDFTFTISSLQPEDIATYYCQQGNTLPYTFGQGTKVEIKRADAAPTVSIFPPSSEQLTSGGASVVCFLNNFYPKDINVKWKIDGSERQNGVLNSWTDQDSKDSTYSMSSTLTLTKDEYERHNSYTCEATHKTSTSPIVKSFNRNEC
heavy 2: QVQLQESGPGLVKPSETLSLTCAVSGYSISDDQAWSWVRQPPGEGLEWIGYISYSGITNYNPSLKGRVTISRDTSKNQFSLKLSSVTAADTAAYYCARSLARTTAMDYWGEGTLVTVSSAKTTPPSVYPLAPGSAAQTNSMVTLGCLVKGYFPEPVTVTWNSGSLSSGVHTFPAVLQSDLYTLSSSVTVPSSTWPSETVTCNVAHPASSTKVDKKIVPRDCGCKPCICTVPEVSSVFIFPPKPKDVLTITLTPKVTCVVVDISKDDPEVQFSWFVDDVEVHTAQTQPREEQFNSTFRSVSELPIMHQDWLNGKEFKCRVNSAAFPAPIEKTISKTKGRPKAPQVYTIPPPKEQMAKDKVSLTCMITDFFPEDITVEWQWNGQPAENYKNTQPIMDTDGSYFVYSELNVQKSNWEAGNTFTCSVLHEGLHNHHTEKSLSHSPGK
light 2: DIQMTQSPSSLSASVGDSVTITCQASQDISSYLNWYQQKPGKAPELLIYYGSELHSGVPSRFSGSGSGTDFTFTISSLEAEDAATYYCQQGNSLPYTFGQGTKVEIERADAAPTVSIFPPSSEQLTSGGASVVCFLNNFYPKDINVKWKIDGSERQNGVLNSWTDQDSKDSTYSMSSTLTLTKDEYERHNSYTCEATHKTSTSPIVKSFNRNEC
notes: Product of mouse IgG1-type Fab arm exchange (D399R on one H chain, K409E on the other); formation efficiency 89.9%, so the preparation may hold some homo variant; also called mIgG1mP4/mN4; mP4/mN4
binding result [1]: no binding | binding result [2]: no binding | Kd [3]: 1900 nM | KD fold mFcgRII [4]: 1.2 fold | KD fold mFcgRIII [5]: 1.2 fold | Kd [6]: 670 nM | Kd [7]: 680 nM | fold KD [8]: 1.3 fold

B3: MRAH-mIgG1/MRAL-mk1 (antibody)
heavy: QVQLQESGPGLVRPSQTLSLTCTVSGYSITSDHAWSWVRQPPGRGLEWIGYISYSGITTYNPSLKSRVTMLRDTSKNQFSLRLSSVTAADTAVYYCARSLARTTAMDYWGQGSLVTVSSAKTTPPSVYPLAPGSAAQTNSMVTLGCLVKGYFPEPVTVTWNSGSLSSGVHTFPAVLQSDLYTLSSSVTVPSSTWPSETVTCNVAHPASSTKVDKKIVPRDCGCKPCICTVPEVSSVFIFPPKPKDVLTITLTPKVTCVVVDISKDDPEVQFSWFVDDVEVHTAQTQPREEQFNSTFRSVSELPIMHQDWLNGKEFKCRVNSAAFPAPIEKTISKTKGRPKAPQVYTIPPPKEQMAKDKVSLTCMITDFFPEDITVEWQWNGQPAENYKNTQPIMDTDGSYFVYSKLNVQKSNWEAGNTFTCSVLHEGLHNHHTEKSLSHSPGK
light: DIQMTQSPSSLSASVGDRVTITCRASQDISSYLNWYQQKPGKAPKLLIYYTSRLHSGVPSRFSGSGSGTDFTFTISSLQPEDIATYYCQQGNTLPYTFGQGTKVEIKRADAAPTVSIFPPSSEQLTSGGASVVCFLNNFYPKDINVKWKIDGSERQNGVLNSWTDQDSKDSTYSMSSTLTLTKDEYERHNSYTCEATHKTSTSPIVKSFNRNEC
notes: Control with mouse IgG1 H chain constant region and mouse kappa constant region; also called naturally occurring mIgG1
binding result [1]: no binding | binding result [2]: no binding | Kd [3]: 2500 nM | KD fold mFcgRII [9]: 1 fold | KD fold mFcgRIII [10]: 1 fold | fold KD [11]: 1 fold | Kd [6]: 820 nM | Kd [7]: 790 nM
